Residue numbers refer to the chain shown, from its start.

Experimental findings from patent publication US20120148607A1 (ARGEN X N V, published 2012) are described below.

B1: 49A11 VL shuffled Fab (Fab, V domains shown)
VH: QVQLVESGPGLVKPSQTLSLTCAVSGGSITTNYYYWSWIRQSPGKGLEWMGVIAYDGSTDYSPSLKSRTSISRDTSKNQFSLQLSSVTPEDTAVYYCARDVRVIATGWATANALDAWGQGTQVTVSS
VL: QSALTQPPSVSGSPGKTVTISCAGTSSDVGYGNYVSWYQKLPGTAPKLLIYAVSYRASGIPDRFSGSRSGNTASLTISGLQSEDEADYYCASYRITNRHSVFGGGTHLTVL
notes: VL-shuffled Fab with the 36C4Q heavy chain, periplasmic extract
B2: 36C4Q Fab (Fab, V domains shown)
VH: B1 VH
VL: B1 VL with A3V, K40Q, Y51F, R68K, S74F, I95S, T96S, R98N, H99A, S100A
B3: 49G3 VL shuffled Fab (Fab, V domains shown)
VH: B1 VH
VL: QSALTQPPSVSGTLGKTLTISCAGTSTDVGYGNYVSWYQQLPGTAPKLLIFAVSYRASGIPDRFSGSKSGNTAFLTISGLQSEDEADYYCASYRSSNNAAVFGGGTHLTVL
notes: as for B1
B4: 49E11 VL shuffled Fab (Fab, V domains shown)
VH: B1 VH
VL: QAVLTQPPSVSGTLGKTVTISCAGTSSDVGYGNYVSWYQKLPGTAPKLLIYAVSYRASGIPDRFSGSKSGNTASLTISGLQSEDEADYHCASYRTSNNVAVFGGGTKLTVL
notes: as for B1
B5: 49D3 VL shuffled Fab (Fab, V domains shown)
VH: B1 VH
VL: B3 VL with Q1L, S2P, A3V, T27S, F51Y, F74S, T76S, N98K, A99N
notes: as for B1
B6: 49C4 VL shuffled Fab (Fab, V domains shown)
VH: B1 VH
VL: B4 VL with A2S, V3A, S54T, H89Y, T95R, N97T, A100G, K107H
notes: as for B1
B7: 49D2 VL shuffled Fab (Fab, V domains shown)
VH: B1 VH
VL: B3 VL with A3V
notes: as for B1
B8: 49A1 VL shuffled Fab (Fab, V domains shown)
VH: B1 VH
VL: B3 VL with A3V, T13S, L14P, L18V, T27S
notes: as for B1
B9: 48A1 VL shuffled Fab (Fab, V domains shown)
VH: EVQLVQPGVELRNPGASVKVSCKASGYIFTMNSIDWVRQAPGQGLEWMGRIDPEDGGTKYAQKFQGRVTFTADTSTSTAYVELNSLRSEDTAVYYCARVDDYYLGYDYWGQGTQVTVSS
VL: EIVMTQSPSSVTASAGEKVTINCKSSQSVLWRSNQKNYLAWYQQRLGQSPRLLISWASIRESGVPDRFSGSGSTTDFTLTISSFQPEDAAVYYCQQGYSFPYTFGSGTRLEIK
notes: VL-shuffled Fab with the 38H10 heavy chain, periplasmic extract; The printed 48A1 VK reads the same as the 38H10 VK
B10: 38H10 Fab (Fab, V domains shown)
VH: B9 VH
VL: B9 VL
notes: Fab from the phage display library, tested as periplasmic extract
B11: 48A11 VL shuffled Fab (Fab, V domains shown)
VH: B9 VH
VL: DIVMTQTPSSVTAAVGEKVAINCKSSQSVLYNPNQKSYLAWYQQRPGQSPRLLIYWASTRESGVPDRFSGSGSTTDFALTISSFQPEDAAVYYCQQGYSFPYSFGSGTRLEIR
notes: VL-shuffled Fab with the 38H10 heavy chain, periplasmic extract
B12: 48B8 VL shuffled Fab (Fab, V domains shown)
VH: B9 VH
VL: B9 VL with E1D, I2V, A15V, W31Y, R32T, Q35H, S55Y, I59T, Y98W, T103S
notes: as for B11
B13: 48D7 VL shuffled Fab (Fab, V domains shown)
VH: B9 VH
VL: DIVMTQTPASVTASAGEKVTINCKSSQSVLFSSNQKNYLAWYQQRVGQSPRLLIYWASTRESGVPDRFSGSGSTTDFTLTISNFQPEDAAVYYCQQGYSFPYSFGSGTRLEIR
notes: as for B11
B14: 48E5 VL shuffled Fab (Fab, V domains shown)
VH: B9 VH
VL: B9 VL with E1D, V3Q, W31Y, R32N, S55Y, I59T, Y98W
notes: as for B11
B15: 48E2 VL shuffled Fab (Fab, V domains shown)
VH: B9 VH
VL: B13 VL with I2V, T7S, A9S, F31W
notes: as for B11
B16: 48C8 VL shuffled Fab (Fab, V domains shown)
VH: B9 VH
VL: B9 VL with E1D, V3Q, M4L, A13V, A15V, W31Y, R32N, S55Y, I59T, Y98W
notes: as for B11
B17: 48D2 VL shuffled Fab (Fab, V domains shown)
VH: B9 VH
VL: B9 VL with E1D, S7T, W31Y, R32N, S55Y, I59T, Y98W
notes: as for B11
B18: 48B6 VL shuffled Fab (Fab, V domains shown)
VH: B9 VH
VL: B9 VL with E1D, V3Q, M4L, W31Y, R32G, S55Y, I59T, Y98W
notes: as for B11
B19: 34H7 Fab (Fab, V domains shown)
VH: ELQLVESGGALVQPGGSLRLSCVESGFTFSSYAMSWVRQAPGKGLEWVSGIYKGGGPKYANSVKGRFTISRDNAKNTLYLQMNSLKPEDTAVYYCAKSGYGSSLGDFGSWGQGTQVTVSS
VL: QAGLTQLSSMSGSPGQTVTITCTGSSSNIGGGYYLSWYQHLPGTAPKLLIYSNINRASGVPDRFSGSTSGISASLTITGLQAEDEADYYCSSWDDSVSGPVFGGGTSLTVL
notes: as for B10
B20: 12G4 Fab (Fab, V domains shown)
VH: QLQLVESGGGMAQPGGSLKLSCAASGFTFDDYAMTWVRQAPGKGLEWLSTISWNDINTYYAESMKDRFTISRDNAKNTLYLQMNSLESEDTAVYYCAKRRDNYYGTSGEYDYWGQGTQVTVSS
VL: QSALTQPPSVSGTLGKTVTISCAGTSSDIGNYNYVSWYQQLPGTAPKLLIYEVNKRPSGIPDRFSGSKSGNTASLSISGLQSEDEADYYCASYRSSNNVVFGGGTKLTVL
notes: as for B10
B21: 13E6 Fab (Fab, V domains shown)
VH: QVQLQESGGDLVQPGGSLRLSCAASGFTFDDYVMNWVRQAPGKGLEWISAINWNGGSTYYAESMKGRFTISRDNAKNTLYLQMYSLQSDDTAVYYCVKDTVVSGNGYWGQGTQVTVSS
VL: B20 VL with A3V, N31D, E52D, P57A, S96R, N98D, V99Y, V100A
notes: as for B10
B22: 40B8 Fab (Fab, V domains shown)
VH: EVQLVQPGAELRNPGASVKVSCKASGYTFTNYVIDWVRQAPGQGLEWMGRIDPENGGTRYAQKFQGRVTFTADTSTSTAYVELSNLRSEDTAVYYCARLEDYELAYDYWGQGTQVTVSS
VL: DIVMTQTPSSVTASAGEKVTINCKSSQSVLLSSNQKNYLAWYQQRLGQSPRLLIYWASTRESGVPDRFSGSGSTTDFTLTISSFQPEDAAVYYCQQGVSFPLTFGQGTKVELK
notes: as for B10
B23: 20F1 Fab (Fab, V domains shown)
VH: EVQVQESGPGLVKPSQTLSLTCTVSGGSMTGNYYAWSWIRQPPGKGLEWMGVIAYDGSTYYSPSLKSRTSISRDTSKNQFSLQLSSVSPEDTAVYYCARGPGWYSGSRNDYWGQGTQVTVSS
VL: QSALTQPPSVSGSPGKTVTISCTGTNSDVGYGNYVSWYQQLPGMAPKLLIYDVNRRASGIADRFSGSKSGNTASLTISGLQSEDEGDYHCASYRSANNAVFGGGTHLFVL
notes: as for B10
B24: 36C4 Fab (Fab, V domains shown)
VH: B1 VH with Q122L
VL: B3 VL with A3V, T13S, L14P, L18V, T27S
notes: as for B10
B25: 20A11 Fab (Fab, V domains shown)
VH: QVQLVESGGGLVQPGGSLRLSCAASGFTFDDYAMSWVRQAPGKGLEWVSAISWNGSSTYYAESMKGRFTISRDNAKNTLYLQMNSLKSEDTAVYYCAKDLIGSHDYWGQGTQVTVSS
VL: QAVLTQPPSVSGTLGKTLTISCAGTSSDVGYGNYVSWYQQLPGTAPKLLIYAVSTRASGIPDRFSGSKSGNTASLTISGLQSEDEADYYCASYRSSNNYAFGAGTKLTVL
notes: as for B10

For one assay, the target named is T1, recombinant dimeric c-Met (R&D systems, 358-MT/CF) (human, UniProt P08581 25-932).
T1 construct: Bought product; also called Fc-Met; recombinant c-Met
T1 sequence (P08581 25-932 limits assumed): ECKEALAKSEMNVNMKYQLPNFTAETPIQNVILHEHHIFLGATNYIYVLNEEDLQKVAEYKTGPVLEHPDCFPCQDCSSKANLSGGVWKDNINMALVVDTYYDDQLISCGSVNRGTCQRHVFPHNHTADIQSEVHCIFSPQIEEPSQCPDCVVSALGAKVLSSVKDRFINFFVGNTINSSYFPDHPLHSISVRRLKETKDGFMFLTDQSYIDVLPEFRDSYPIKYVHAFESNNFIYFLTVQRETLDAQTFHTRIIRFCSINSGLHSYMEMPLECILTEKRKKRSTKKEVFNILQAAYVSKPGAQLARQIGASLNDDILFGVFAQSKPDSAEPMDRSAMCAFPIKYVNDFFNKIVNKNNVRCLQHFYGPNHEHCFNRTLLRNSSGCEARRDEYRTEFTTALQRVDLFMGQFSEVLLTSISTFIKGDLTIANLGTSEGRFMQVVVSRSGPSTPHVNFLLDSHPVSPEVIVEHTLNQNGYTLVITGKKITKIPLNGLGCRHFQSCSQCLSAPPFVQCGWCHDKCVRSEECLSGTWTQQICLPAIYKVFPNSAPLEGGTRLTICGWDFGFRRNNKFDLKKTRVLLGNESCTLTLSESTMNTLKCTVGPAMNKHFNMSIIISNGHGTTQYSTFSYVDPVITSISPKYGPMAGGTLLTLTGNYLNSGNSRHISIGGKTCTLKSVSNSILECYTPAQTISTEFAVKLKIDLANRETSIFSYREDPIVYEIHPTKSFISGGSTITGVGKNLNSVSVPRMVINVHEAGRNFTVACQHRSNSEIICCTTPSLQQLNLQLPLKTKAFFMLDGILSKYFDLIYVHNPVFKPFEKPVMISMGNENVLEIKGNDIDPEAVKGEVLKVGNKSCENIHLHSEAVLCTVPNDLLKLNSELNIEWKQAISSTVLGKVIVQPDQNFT
Put plainly: SPR, periplasmic Fab over Fc-Met (around 3000 RU) on CM5 chip. The procedure:
The clones were then tested for their dissociation constants by Surface Plasmon Resonance. Around 3000 RU of Fc-Met was immobilized directly onto a CM5 chip to obtain a clear binding profile from the periplasmic extracts. Clones with an improved off-rate were sent for sequencing.
Background: In SPR one partner is held on a chip, and binding of the other changes the refractive index at the surface.
Broadly, the koff is the rate constant with which the complex falls apart. With B1, the koff amounted to 0.00048 s⁻¹. On the same count and under the same terms, the figure for B2 is 0.00017 s⁻¹; for B3 it is 0.00019 s⁻¹. The same measure, in the same setting: with B4 the figure was 0.00063 s⁻¹.

Consider B5, for which the koff turned out to be 0.00082 s⁻¹. Take B6: the koff was 0.00018 s⁻¹. On the same count and under the same terms, with B7 the figure was 0.00017 s⁻¹; with B8, 0.00017 s⁻¹; with B9, 0.00081 s⁻¹. The same measure, in the same setting: the figure for B10 is 0.0005 s⁻¹; for B11 it is 0.00025 s⁻¹; for B12 it is 0.00033 s⁻¹. The same measure, in the same setting: the figure for B13 is 0.00025 s⁻¹; for B14 it is 0.00019 s⁻¹; for B15 it is 0.00029 s⁻¹. Take B16: the koff stood at 0.00033 s⁻¹. The same measure, in the same setting: with B17 the figure was 0.00013 s⁻¹; with B18, 0.00012 s⁻¹.

In the next assay the target is T1, recombinant dimeric c-Met (R&D systems, …). Briefly: SPR, Fab-containing periplasmic extract over immobilised c-Met, dissociation 2 min. The procedure: HGF-competing clones were sequenced in the VH and the VL regions and divided into VH families based on the sequence of the CDR3 in the VH. These VH families were further tested with Surface Plasmon Resonance (SPR) for dissociation (koff) and recognition of SEMA-PSI or the extracellular domain of c-Met (Decoy). Between 1000-2000 RU of dimeric c-Met, SEMA-PSI or Decoy c-Met was immobilised on a VIA chip with amine coupling in sodium acetate buffer (pH 4.5). The Fab-containing peris were added with a flow rate of 30 μl/min and Fabs were considered to be binding if an increase of the RU was observed. The koff was measured for 2 minutes for each sample.
Take B19: the koff was 0.0016 s⁻¹. Take B20: the koff came to 0.00013 s⁻¹.

As to B21, the koff stood at 0.00065 s⁻¹. For B22, the koff turned out to be 0.0013 s⁻¹. Still for that read-out and setting: the figure for B23 is 0.0069 s⁻¹; for B24 it is 0.00064 s⁻¹. On the same count and under the same terms, with B10 the figure was 0.0012 s⁻¹; with B25, 0.0009 s⁻¹.
